From patent US20030044896 come the findings set out here.

Data set [1] concerns the target T1, Mas-DH+Gly (42 amino acid precursor of Manduca sexta diuretic hormone).
T1 chain: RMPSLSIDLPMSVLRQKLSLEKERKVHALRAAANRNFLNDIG

The target of a further data set is T2, Mas-DH[K22Q]+Gly.
T2 chain: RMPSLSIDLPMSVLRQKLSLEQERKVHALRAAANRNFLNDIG

B1: Mkc7 endoprotease (encoded by MKC7) (protein)
chain: DDDYELVELTNQNSFYSVELDIGTPPQKVTVLVDTGSSDLWVTGSDNPYCSTKKKDTTGSSFKQVNKDALASVVESVFTEISYDTTIVTSEATATFDSTASTSQLIDCATYGTFNTSKSSTFNSNNTEFSIAYGDTTFASGTWGHDQLSLNDLNITGLSFAVANETNSTVGVLGIGLPGLESTYSGVSLSSVQKSYTYNNFPMVLKNSGVIKSTAYSLFANDSDSKHGTILFGAVDHGKYAGDLYTIPIINTLQHRGYKDPIQFQVTLQGLGTSKGDKEDNLTTLTTTKIPVLLDSGTTISYMPTELVKMLADQVGATYSSAYGYYIMDCIKEMEEESSIIFDFGGFYLSNWLSDFQLVTDSRSNICILGIAPQSDPTIILGDNFLANTYVVYDLDNMEISMAQANFSDDGEYIEIIESAVPSALKAPGYSSTWSTYESIVSGGNMFSTAANSSISYFASTSHSATSSSSSKGQKTQTSTTALSISKSTSSTSSTGMLSPTSSSSTRKEN
Consider B1, for which the “proteolytic fragments recovered from culture medium of protease deletion strains (RPLC, ESI-MS)” value in data set [1] was “both Yap3 and Mkc7 are capable of contributing to the cleavage of Mas-DH+Gly at the Lys^22 residue, as well as at other sites”. The “proteolytic fragments recovered from culture medium of the yap3 deletion strain HKY20[pKSC3] (RPLC, ESI-MS)” value with Mas-DH[K22Q]+Gly is recorded as “suggesting that Mkc7 cleaved after Lys^25”.

B2: Yap3 endoprotease (Yeast Aspartyl Protease 3, encoded by YAP3) (protein)
chain: ADGYEEIIITNQQSFYSVDLEVGTPPQNVTVLVDTGSSDLWIMGSDNPYCSSNSMGSSRRRVIDKRDDSSSGGSLINDINPFGWLTGTGSAIGPTATGLGGGSGTATQSVPASEATMDCQQYGTFSTSGSSTFRSNNTYFSISYGDGTFASGTFGTDVLDLSDLNVTGLSFAVANETNSTMGVLGIGLPELEVTYSGSTASHSGKAYKYDNFPIVLKNSGAIKSNTYSLYLNDSDAMHGTILFGAVDHSKYTGTLYTIPIVNTLSASGFSSPIQFDVTINGIGISDSGSSNKTLTTTKIPALLDSGTTLTYLPQTVVSMIATELGAQYSSRIGYYVLDCPSDDSMEIVFDFGGFHINAPLSSFILSTGTTCLLGIIPTSDDTGTILGDSFLTNAYVVYDLENLEISMAQARYNTTSENIEIITSSVPSAVKAPGYTNTWSTSASIVTGGNIFTVNSSQTASFSGNLTTSTASATSTSSKRN
As to B2, the “proteolytic fragments recovered from culture medium of protease deletion strains (RPLC, ESI-MS)” value in data set [1] is “both Yap3 and Mkc7 are capable of contributing to the cleavage of Mas-DH+Gly at the Lys^22 residue, as well as at other sites”. In addition, in the data set with Mas-DH[K22Q]+Gly, the “proteolytic fragments recovered from culture medium of the mkc7 deletion strain HKY21[pKSC3] (RPLC, ESI-MS)” value is “suggesting that Yap3 cleaved after Arg at the two sites E R ↓ K V and L R ↓ Q K”.
